In patent US20160145323A1 (INTEGRAL MOLECULAR, published 2016):

Columns and labels:
[1] = target: CHIKV E2/E1 envelope (S27 strain) displayed on particles (intact CHIKV VLPs, retroviral VLPs, pseudo (Chikungunya virus (S27 strain)) (UniProt P0DOK1))
[2] = target: CHIKV E2/E1 envelope (S27 strain) displayed on particles (intact CHIKV VLPs, retroviral VLPs, pseudo (Chikungunya virus (S27 strain)) (UniProt P0DOK1)); assay: cell-based or functional assay
[3] = target: CHIKV envelope mutant E2-E24A expressed on HEK-293T cells (Chikungunya virus (S27 strain)) (UniProt P0DOK1)
[4] = target: CHIKV envelope mutant E2-G55A expressed on HEK-293T cells (Chikungunya virus (S27 strain)) (UniProt P0DOK1)
[5] = target: CHIKV envelope mutant E2-I121A expressed on HEK-293T cells (Chikungunya virus (S27 strain)) (UniProt P0DOK1)
[6] = target: CHIKV envelope mutant E2-K66A expressed on HEK-293T cells (Chikungunya virus (S27 strain)) (UniProt P0DOK1)
[7] = target: CHIKV envelope mutant E2-R80A expressed on HEK-293T cells (Chikungunya virus (S27 strain)) (UniProt P0DOK1)
[8] = target: CHIKV envelope mutant E2-W64A expressed on HEK-293T cells (Chikungunya virus (S27 strain)) (UniProt P0DOK1)
[9] = target: CHIKV envelope mutant E2-A162S (Chikungunya virus (S27 strain)) (UniProt P0DOK1)
[10] = target: CHIKV envelope mutant E2-E24A expressed on HEK-293T cells (Chikungunya virus (S27 strain)) (UniProt P0DOK1); remark: listed apart in the source
[11] = target: CHIKV envelope mutant E2-G55A expressed on HEK-293T cells (Chikungunya virus (S27 strain)) (UniProt P0DOK1); remark: listed apart in the source
[12] = target: CHIKV envelope mutant E2-I121A expressed on HEK-293T cells (Chikungunya virus (S27 strain)) (UniProt P0DOK1); remark: listed apart in the source
[13] = target: CHIKV envelope mutant E2-R80A expressed on HEK-293T cells (Chikungunya virus (S27 strain)) (UniProt P0DOK1); remark: listed apart in the source
[14] = target: CHIKV envelope mutant E2-W64A expressed on HEK-293T cells (Chikungunya virus (S27 strain)) (UniProt P0DOK1); remark: listed apart in the source
[15] = target: T1, CHIKV E2/E1 envelope (S27 strain) displayed on particles (intact CHIKV VLPs, retroviral VLPs, pseudo (Chikungunya virus (S27 strain), UniProt P0DOK1 326-748; Q8JUX5 810-1248)
[16] = target: T1, CHIKV E2/E1 envelope (S27 strain) …; assay: cell-based or functional assay
[17] = target: CHIKV envelope mutant E2-Y69A expressed on HEK-293T cells (Chikungunya virus (S27 strain), UniProt P0DOK1 326-748; Q8JUX5 810-1248)
[18] = target: CHIKV envelope mutant E2-F84A expressed on HEK-293T cells (Chikungunya virus (S27 strain), UniProt P0DOK1 326-748; Q8JUX5 810-1248)
[19] = target: CHIKV envelope mutant E2-V113A expressed on HEK-293T cells (Chikungunya virus (S27 strain), UniProt P0DOK1 326-748; Q8JUX5 810-1248)
[20] = target: CHIKV envelope mutant E2-G114A expressed on HEK-293T cells (Chikungunya virus (S27 strain), UniProt P0DOK1 326-748; Q8JUX5 810-1248)
[21] = target: CHIKV envelope mutant E2-T116A expressed on HEK-293T cells (Chikungunya virus (S27 strain), UniProt P0DOK1 326-748; Q8JUX5 810-1248)
[22] = target: CHIKV envelope mutant E2-D117A expressed on HEK-293T cells (Chikungunya virus (S27 strain), UniProt P0DOK1 326-748; Q8JUX5 810-1248)

B1: MAb CAP4A-E7 (IM-CKV063), human IgG1 (antibody, V domains shown)
VH: QVQLVQSGAEVKKPGSAVKVSCKASGGTLRKYAISWLRQAPGQGLEWMGGIIPIFGTANYAQKFQGRVTITADESTTTPYTTTPYTSTAYIELTSLRSEDTAVYYCARDLGPLTGYSYSYFDYWGQGTLVTVSS
VL: EIVMTQSPATLSLSPGERATLSCRASQSVSSYLAWYQQKPGQAPRLLIYDASNRATGIPDRFSGSGSGTDFTLTISRLEPEDFAVYYCQQYANSRRTFGQGTKVEIT
- Kd [1]: 0.32 nM
- koff [1]: 9.4e-05 s⁻¹
- kon [1]: 290000 M⁻¹ s⁻¹
- IC50, neutralization of reporter viruses pseudotyped with CHIKV S27 E2/E1 [2]: 0.0074 µg/mL
- PRNT50, live CHIKV S27 on Vero cells [2]: 11 ng/mL

B2: purified Fab CAP4A-E7 (Fab, V domains shown)
VH: B1 VH
VL: B1 VL
- binding relative to wild-type E2/E1 (% of wild-type) [3]: < 20
- binding relative to wild-type E2/E1 (% of wild-type) [4]: < 20
- binding relative to wild-type E2/E1 (% of wild-type) [5]: < 20
- binding relative to wild-type E2/E1 (% of wild-type) [6]: < 20
- binding relative to wild-type E2/E1 (% of wild-type) [7]: < 20
- binding relative to wild-type E2/E1 (% of wild-type) [8]: < 20
- percent wild-type reactivity (percent wild-type) [9]: 37
- percent wild-type reactivity (percent wild-type) [10]: 15
- percent wild-type reactivity (percent wild-type) [11]: 12
- percent wild-type reactivity (percent wild-type) [12]: 2
- percent wild-type reactivity (percent wild-type) [13]: 3
- percent wild-type reactivity (percent wild-type) [14]: 1

B3: MAb CAP5A-F6 (IM-CKV065), human IgG1 (antibody, V domains shown)
VH: EVQLVQSGPEVKKPGASVKVSCKASGYTFSNYGVSWVRQAPGQGLEWLGWISAYNGNTKYAQKFEGRVTLTTDSLSDTAYMELRSLRSDDTAVYYCVRDDRSGYYYLPFDFWGQGTLVTVSS
VL: DIQLTQSPSFLSASVGDRVTITCRASQGISSYLAWYQQKPGKAPKLLIFAASTLQSGVPSRFSGSGSGTDYTLTISSLQPEDFATYYCQQSYSNPTFGQGTRLEIK
- Kd [15]: 9.3 nM
- koff [15]: 0.0015 s⁻¹
- kon [15]: 160000 M⁻¹ s⁻¹
- IC50, neutralization of reporter viruses pseudotyped with CHIKV S27 E2/E1 [16]: 0.17 µg/mL

B4: CAP101A-E8 (IM-CKV056), converted to full length human IgG (antibody, V domains shown)
VH: QVQLVQSGGGVVQPGRSLRLSCAASGFTLSTYGLHWVRQAPGKGLEWVAVISYDGTNKYYADSVKGRFTVSWDNSKNTLYLQMNSLRAEDTAVYYCAKDLASSSWSDYYHYGMDVWGQGTMVTVSS
VL: DIQLTQSPSTLSASVGDRITITCRATQSIGSWLAWYQQKPGKAPKLLIYKASSLESGVPSRFSGSGSATEFTLTISGLQPEDFATYYCQQLKSFPLTFGPGTKVDIQ
- reactivity relative to WT CHIKV env [17]: < 20 % of WT
- reactivity relative to WT CHIKV env [18]: < 20 % of WT
- reactivity relative to WT CHIKV env [19]: < 20 % of WT
- reactivity relative to WT CHIKV env [20]: < 20 % of WT
- reactivity relative to WT CHIKV env [21]: < 20 % of WT
- reactivity relative to WT CHIKV env [22]: < 20 % of WT
